In patent publication US20260193315A1 (FBD BIOLOGICS, published 2026):
Substitutions are numbered along the chain they refer to.

B1: 1D2 (ligand)
4-1BBL variant: ACPWAVSGARASPGSAASPRLREGPELSPDDPAGLLDLRQGMFAQLVAQNVLLIDGPLSWYEDPGLAGVSLTGGLSYKEDTKELVVAKAGVYYVFFQLELRRVVAGTGSGSVSLALHLQPLRSAAGAAALALTVDLPPASSEARNSAFGFQGRLLHLSAGQRLGVHLHTEARARHALQLTQGATVLGLFRVTPEIPAGLPSPRSE
notes: also called 4-1BBL variant 1D2 (phagemid clone, bacterial supernatant)
B2: 8E2 (ligand)
4-1BBL variant: B1 4-1BBL variant with E62P, G106F, T107E, A176S, L177W
notes: also called 4-1BBL variant 8E2 (phagemid clone, bacterial supernatant)
B3: 5D9 (ligand)
4-1BBL variant: B1 4-1BBL variant with W60F, E62S, L177W, L179M
notes: also called 4-1BBL variant 5D9 (phagemid clone, bacterial supernatant)
B4: 4E10 (ligand)
4-1BBL variant: B1 4-1BBL variant with E62P, G106R, T107E, L177M
notes: also called 4-1BBL variant 4E10 (phagemid clone, bacterial supernatant)
B5: 4C2 (ligand)
4-1BBL variant: B1 4-1BBL variant with E62P, T107R, L177W, L179F
notes: also called 4-1BBL variant 4C2 (phagemid clone, bacterial supernatant)
B6: 8B10 (ligand)
4-1BBL variant: B1 4-1BBL variant with E62T, T107M, A176S, L177W
notes: also called 4-1BBL variant 8B10 (phagemid clone, bacterial supernatant)

Key:
[1] = molecular target: T1, 4-1BB (coated on ELISA plate) (UniProt Q07011 24-186, limits assumed); assay: ELISA, binding OD450 / expression OD450, after 45 °C 30 min
Procedure: (§1) After centrifugation, culture supernatant was collected for determination of expression and binding activity of the 4-1BBL variants. To determine expression of the 4-1BBL variants, a 96-well plate (flat bottom) was coated with 2 μg/ml anti-His tag antibody overnight. The pre-coated plate was then blocked with 5% milk in PBS at room temperature (RT) for 1 hour. After blocking, 30 μl of bacterial supernatant was added to each well of the plate, and the plate was incubated for 1 hour at RT. After the incubation, anti-c-myc-HRP was added, and the expression level of 4-1BBL variants can be determined by measuring OD450 in a plate reader. To determine binding activity of the 4-1BBL variants, a 96-well plate (flat bottom) was coated with 0.5 μg/ml of 4-1BB overnight. The pre-coated plate was then blocked with 5% milk in PBS at RT for 1 hour. After blocking, 30μ of bacterial supernatant was added to each well of the plate, and the plate was incubated for 1 hour at RT. After the incubation, anti-c-myc-HRP was added, and the 4-1BB-binding activity of 4-1BBL variants can be determined by measuring OD450 in a plate reader.

[2] = molecular target: T1, 4-1BB (coated on ELISA plate); assay: ELISA, binding OD450 / expression OD450
Procedure: as §1
(§2) The 4-1BB-binding activity was measured using the same methods described above. With respect to 4-1BB-mediated NF-κB reporter activity, a 96-well plate (flat bottom) was coated with 5 μg/ml anti-c-myc antibody at 4° C. overnight. The induced 4-1BBL variant supernatants were added to the pre-coated plate, and the plate was incubated at 37° C. for 2 hours. The above steps were repeated for six times. Afterwards, 1×10⁵/well of transfected NF-κB Jurkat cells expressing 4-1BB was added to the plate, which was then incubated for 5 hours at 37° C. After the incubation, the luminance signal was detected to determine the 4-1BB reporter activity.

[3] = molecular target: 4-1BB on transfected NF-κB Jurkat cells (UniProt Q07011 24-255, limits assumed); assay: cell-based or functional assay
4-1BB on transfected NF-κB Jurkat cells, sequence (Q07011 24-255 limits assumed): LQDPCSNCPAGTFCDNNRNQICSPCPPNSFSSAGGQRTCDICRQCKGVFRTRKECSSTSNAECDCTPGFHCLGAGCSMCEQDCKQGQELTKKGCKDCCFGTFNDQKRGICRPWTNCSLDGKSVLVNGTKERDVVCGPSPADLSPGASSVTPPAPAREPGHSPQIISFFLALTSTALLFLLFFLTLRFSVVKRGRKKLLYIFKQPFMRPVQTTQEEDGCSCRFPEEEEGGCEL

[4] = molecular target: T1, 4-1BB (coated on ELISA plate); assay: ELISA on coated 4-1BB, supernatant, OD450
Procedure: as §1

[5] = molecular target: T1, 4-1BB (coated on ELISA plate); assay: ELISA on coated 4-1BB, supernatant
Procedure: as §1, §2

[6] = molecular target: T1, 4-1BB (coated on ELISA plate); assay: ELISA on coated 4-1BB, supernatant after 45 °C 30 min, OD450
Procedure: as §1

[7] = molecular target: T1, 4-1BB (coated on ELISA plate); assay: ELISA, binding/expression ratio relative to WT
Procedure: as §1, §2

[8] = molecular target: T1, 4-1BB (coated on ELISA plate); assay: ELISA, binding OD450 / expression OD450; remark: listed apart in the source
Procedure: as §1

Binder	Binding / Expression ratio (45degrees) [1]	Binding/Expression ratio [2]	Reporter (RLU) [3] [RLU]	Reporter (vs wt) [3]	Reporter/Expression ratio [3]	Binding (25 °C) [4]	Binding (OD450) [5] [OD450]	Binding (45 °C) [6]	Binding (vs wt) [7]	Binding / Expression ratio (25 degrees) [8]
B1	0.553	0.66	4390	0.75	2150	1.16	1.35	0.803	0.38	0.525
B2	0.388	0.21	4880	0.9	2570	0.231	0.392	0.309	0.12	0.188
B3	0.537	1.75	4780	1.48	4240	1.43	1.98	0.205	1.01	1.53
B4	0.885	1.04	7360	2.74	7830	1.36	0.975	1.25	0.6	0.679
B5	0.506	0.67	3420	0.71	2040	0.657	1.12	0.823	0.38	0.431
B6	0.636	2.65	8820	4.66	13300	1.5	1.75	0.182	1.52	1.79
